T1: recombinant human sPLA2-V (human, UniProt P39877 21-138)
T1 construct: The cDNA for the mature enzyme was cloned in frame to an initiator Met codon; also called hGV; human PLA2-V
T1 sequence: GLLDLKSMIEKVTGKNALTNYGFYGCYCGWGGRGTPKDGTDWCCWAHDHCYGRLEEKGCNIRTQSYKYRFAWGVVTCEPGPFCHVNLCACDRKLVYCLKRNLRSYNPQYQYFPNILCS


Assays:
[1] = molecular target: T1, recombinant human sPLA2-V; assay: indirect ELISA on coated recombinant human sPLA2-V, one-site saturation fit (relative Kd)
[2] = molecular target: T1, recombinant human sPLA2-V; assay: indirect ELISA on coated recombinant human sPLA2-V, anti-mouse IgG-HRP detection, one-site saturation fit
[3] = molecular target: T1, recombinant human sPLA2-V; assay: indirect ELISA on coated recombinant human sPLA2-V, streptavidin-HRP detection, one-site saturation fit

Binder	Kd [1] [pM]	Kd [2] [pM]	Kd [3] [pM]
19F3 antibody (antibody, V domains shown, also called mAb #19F3; hybridoma CNCM I-4522) VH: EVQLQLSGADLVKPGASVKLSCTASGFNIKDSYIHWVKQRPEPGLEWIGRIDPANGNTKYDPKFQGKATITADTSSNTAYLQLTSLTSEDTAVYYCARDVVALDYWGQGTTLTVSS VL: QIVLTQSPAIMSASPGEKVTMTCSASSSVSYMYWYQQKPGSSPRLLIYDTSNLASGVPVRFSGSGSGTSYSLTISRMEAEDAATYYCQQWSSYPLTFGAGTKLELKR	84.2	89	–
18G6 antibody (antibody, V domains shown, also called mAb #18G6; hybridoma CNCM I-4521) VH: QVQLQQSGPELVKPGASVKMSCKASGYTFTDYVITWVKQRTGQGLEWIGEIYPGSGSTYYDEKFKGKATLTADKSSNTAYMQLSSMTSEDSAVYFCARWFPYFDYWGQGTTLTVSS VL: QIVLTQSPAIMSASPGEKVTISCSASSSVSYMYWYQQKPGSSPKPWIYRTSNLASGVPARFSGSGSGTSYSLTISSMEAEDAATYYCQQYHSYPLTFGAGTKLELKR	305	530	–
biotinylated monoclonal antibody #18G6 (antibody, V domains shown, biotinylated with a Pierce kit (ref. 21435); sites not stated, also called #18G6-Biot; 18G6-Biot) VH: QVQLQQSGPELVKPGASVKMSCKASGYTFTDYVITWVKQRTGQGLEWIGEIYPGSGSTYYDEKFKGKATLTADKSSNTAYMQLSSMTSEDSAVYFCARWFPYFDYWGQGTTLTVSS VL: QIVLTQSPAIMSASPGEKVTISCSASSSVSYMYWYQQKPGSSPKPWIYRTSNLASGVPARFSGSGSGTSYSLTISSMEAEDAATYYCQQYHSYPLTFGAGTKLELKR	–	–	310
biotinylated monoclonal antibody #19F3 (antibody, V domains shown, biotinylated with a Pierce kit (ref. 21435); sites not stated, also called #19F3-Biot; 19F3-Biot) VH: EVQLQLSGADLVKPGASVKLSCTASGFNIKDSYIHWVKQRPEPGLEWIGRIDPANGNTKYDPKFQGKATITADTSSNTAYLQLTSLTSEDTAVYYCARDVVALDYWGQGTTLTVSS VL: QIVLTQSPAIMSASPGEKVTMTCSASSSVSYMYWYQQKPGSSPRLLIYDTSNLASGVPVRFSGSGSGTSYSLTISRMEAEDAATYYCQQWSSYPLTFGAGTKLELKR	–	–	8.2

From patent US20140356379A1 (CENTRE NATIONAL DE LA RECHERCHE SCIENTIQUE CNRS, published 2014)
